The values that follow come from paper PMC10902665, “Stable structures or PABP1 loading protects cellular and viral RNAs against ISG20-mediated decay”.

In data set [1] the target is ISG20 WT (UniProt Q96AZ6 1-181). Kind of data set: EMSA; 10 mM Mn2+; ISG20 50-1600 nM, RNA 10 nM; fitted curve, no Kd printed in the material; ISG20 EMSA: 50 mM Tris-HCl pH 7.4, 150 mM NaCl, 5 mM b-mercaptoethanol, 10 mM MnCl2, 0.1 ug/ul BSA, 5% glycerol, 30 C 30 min; PABP1 EMSA: 25 mM Tris-HCl pH 7.4, 5 mM MgCl2, 100 mM NaCl, 2.5 mM DTT, 0.2 ug/ul BSA, 10% glycerol, 37 C 15 min. As to conditions: protein: recombinant; tags: N-terminal 6xHis; label: 5' 32P; hairpin. (A gel shift assay detects complexes by their altered migration in electrophoresis.)

For data set [2], the target named is PABP1 (poly(A)-binding protein 1) (UniProt P11940 1-636). Kind of data set: EMSA; 5 mM Mg2+; PABP1 50-500 nM, RNA 10 nM; ISG20 EMSA: 50 mM Tris-HCl pH 7.4, 150 mM NaCl, 5 mM b-mercaptoethanol, 10 mM MnCl2, 0.1 ug/ul BSA, 5% glycerol, 30 C 30 min; PABP1 EMSA: 25 mM Tris-HCl pH 7.4, 5 mM MgCl2, 100 mM NaCl, 2.5 mM DTT, 0.2 ug/ul BSA, 10% glycerol, 37 C 15 min. As to conditions: protein: recombinant; tags: His; label: 5' 32P; single strand.
Chain of PABP1 (poly(A)-binding protein 1) (P11940 whole entry): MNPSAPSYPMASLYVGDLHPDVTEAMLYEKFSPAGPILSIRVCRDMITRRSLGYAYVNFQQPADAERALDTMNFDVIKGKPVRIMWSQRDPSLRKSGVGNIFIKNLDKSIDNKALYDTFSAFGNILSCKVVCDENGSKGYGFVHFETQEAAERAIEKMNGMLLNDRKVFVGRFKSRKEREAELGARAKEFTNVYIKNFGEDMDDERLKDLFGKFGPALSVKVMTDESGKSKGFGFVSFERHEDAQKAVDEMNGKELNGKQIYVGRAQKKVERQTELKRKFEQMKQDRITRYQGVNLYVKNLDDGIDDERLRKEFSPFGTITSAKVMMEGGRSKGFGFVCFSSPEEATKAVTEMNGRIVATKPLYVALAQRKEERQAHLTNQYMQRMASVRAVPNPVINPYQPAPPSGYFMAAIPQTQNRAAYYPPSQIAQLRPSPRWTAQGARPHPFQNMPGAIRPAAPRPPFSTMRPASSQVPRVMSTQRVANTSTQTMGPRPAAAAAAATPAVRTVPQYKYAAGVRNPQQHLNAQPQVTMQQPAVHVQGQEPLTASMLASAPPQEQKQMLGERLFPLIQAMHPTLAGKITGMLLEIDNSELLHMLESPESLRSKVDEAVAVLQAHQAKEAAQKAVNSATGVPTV

Chain of ISG20 WT (Q96AZ6 whole entry): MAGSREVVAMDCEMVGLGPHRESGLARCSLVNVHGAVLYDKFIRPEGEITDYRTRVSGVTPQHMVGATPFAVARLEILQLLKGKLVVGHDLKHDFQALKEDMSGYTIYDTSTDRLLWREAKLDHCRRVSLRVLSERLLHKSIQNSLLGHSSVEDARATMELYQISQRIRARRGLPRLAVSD

Take GGGGCCAGAUCUGAGCCUGGGAGCUCUCUGGCCC (structured_RNA) [TAR-9SL]: the binding result in data set [1] was “binds”. Take ACACACACACACACACACACAAAAAAAAAAAAAAAAAAAA (ssRNA) [(AC)10A20, poly(A)-containing linear RNA]: the binding result in data set [2] is on record as “binds”.
